Measured values from PMC6954417, “DSS1 interacts with and stimulates RAD52 to promote the repair of DSBs” (Nucleic Acids Research, 2019).

Target: T1, GST-DSS1 (human, UniProt P60896 1-70)
T1 construct: DSS1, human; expressed from pGEX-KG; NMR numbering runs from M1 to three residues after M67; also called recombinant GST-DSS1 protein; source: E. coli BL21 (DE3), purified (Glutathione 4B-Sepharose, MonoQ); not shown: GST, N-terminal, kept
Test: pull-down; quantitative: GST-DSS1 4 uM on GST beads, increasing His6-RAD52, 20 mM Tris-acetate pH 7.5, 100 mM KCl, 0.01% NP40, 1 mM DTT, 1 h, 4°C; band intensities normalised to 6 uM His6-RAD52
Settings: both partners purified

T1 sequence (P60896 whole entry): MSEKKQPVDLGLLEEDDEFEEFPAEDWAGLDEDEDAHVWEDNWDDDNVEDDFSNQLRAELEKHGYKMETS

stoichiometry N: 1
B1: His6-RAD52 (natural protein, human, UniProt P43351 1-418, looked up)
chain: MSGTEEAILGGRDSHPAAGGGSVLCFGQCQYTAEEYQAIQKALRQRLGPEYISSRMAGGGQKVCYIEGHRVINLANEMFGYNGWAHSITQQNVDFVDLNNGKFYVGVCAFVRVQLKDGSYHEDVGYGVSEGLKSKALSLEKARKEAVTDGLKRALRSFGNALGNCILDKDYLRSLNKLPRQLPLEVDLTKAKRQDLEPSVEEARYNSCRPNMALGHPQLQQVTSPSRPSHAVIPADQDCSSRSLSSSAVESEATHQRKLRQKQLQQQFRERMEKQQVRVSTPSAEKSEAAPPAPPVTHSTPVTVSEPLLEKDFLAGVTQELIKTLEDNSEKWAVTPDAGDGVVKPSSRADPAQTSDTLALNNQMVTQNRTPHSVCHQKPQAKSGSWDLQTYSADQRTTGNWESHRKSQDMKKRKYDPS
notes: RAD52, human, with His6 tag; not shown: His6, N-terminal, kept
